Data taken from patent US10801027B2, “Inhibitors of SRSF1 to treat neurodegenerative disorders” (University of Sheffield, priority 2016, dated 2020).

System: G4C2-sense or C4G2-antisense repeat transcripts
Assay: RNA immunoprecipitation (RIP) assays in N2A cells
Format: binding, mouse
Details: 15 vs 38/39 repeats
Experimental: Cells were split into 1×T-175 flasks/treatment (5×10^6 cells/plate) and transfected with 30 μg p3×FLAG, p3×FLAG/SRSF1 (11-196) or p3×FLAG/SRSF1 (11-196)-m4 and 10 μg pcDNA 3.1/RAN-G4C2×15-sense, RAN-G4C2×38-sense, RAN-G4C2×15-antisense or RAN-C4G2×39-antisense using 3 μg PEI/1 μg […] and one tenth volume OptiMEM.
Protein-RNA complexes were extracted from Neuro-2a cells 48 hours after transfection. Protein-RNA complexes were cross-linked using 1% formaldehyde for 10 minutes, shaking at room temperature. Residual formaldehyde was quenched with 250 mM Glycine at room temperature for 5 minutes, shaking. Cross-linked cells were subsequently washed in ice cold DEPC treated PBS and scraped into ice cold RNase free lysis buffer (DEPC treated water containing 50 mM Hepes pH7.5, 150 mM NaCl, 10% glycerol, 0.5% triton X-100, 1 mM EDTA, 1 mM DTT, 1 μl RNase inhibitor, protease inhibitor cocktail). Cells were passed through a 21G gauge needle 10 times and left to lyse on ice for 10 minutes, followed by centrifugation at maximum speed at 4° C. for five minutes and quantification using Bradford Reagent. 2.5 mg of total protein at a 1 mg/ml concentration was incubated with 40 μl anti-FLAG® M2 affinity resin slurry (which had been blocked overnight with 1% BSA and 5 μl/ml ssDNA) overnight at 4° C. on a rotating wheel. One 15th of the total protein extract was retained for an input sample. […]

B1: SRSF1-m4: quadruple SRSF1 point mutant aa11-196, dominant negative, does not interact with TAP/NXF1 (protein)
chain: AGNNDCRIYVGNLPPDIRTKDIEDVFYKYGAIRDIDLKNRRGGPPFAFVEFEDPRDAEDAVYGRDGYDYDGYRLRVEFPASGAGTGRGGGGGGGGGAPRGRYGPPSAASENRVVVSGLPPSGSWQDLKDHMREAGDVCYADVYRDGTGVVEFVRKEDMTYAVRKLDNTKFRSHEGETAYIRVKVDG
modifications: left off: small tags and cut ends
**Q.** With B1 as the molecule, how does the immunoprecipitated repeat transcripts read?
**A.** length-dependent repeat-RNA sequestration
